The subject of one series is NCCCNCCCCNCCCN
The series is described as follows: steady-state oxygen consumption, oxygen electrode. The format is biochemical, Saccharomyces cerevisiae. The following applies: 1.2 mM oxygen, pH 9.35, 10% glycerol, 25 °C, pH 9.35.

Another series relates to CC(=O)NCCCNCCCCNCCCN
The series is described as follows: steady-state oxygen consumption, oxygen electrode. The format is biochemical, Saccharomyces cerevisiae. The following applies: 1.2 mM oxygen, pH 9.0, 10% glycerol, 25 °C, pH 9.0.

We go through two substances from paper PMC3548949.

For the substance “Fms1 (Saccharomyces cerevisiae S288C; N195A)”, in the series on NCCCNCCCCNCCCN, the Km stood at 127 ± 27 µM, the kcat was 4.9 ± 0.2 s⁻¹ and the kcat/Km was 38500 ± 8300 M⁻¹ s⁻¹. In the series on CC(=O)NCCCNCCCCNCCCN, the Km is 104 ± 14 µM, the kcat was 8.1 ± 0.2 s⁻¹ and the kcat/Km is 78000 ± 13000 M⁻¹ s⁻¹.
For the substance “Fms1 (Saccharomyces cerevisiae S288C; D94N)”, in the series on NCCCNCCCCNCCCN, the Km was found to be 320 ± 88 µM and the kcat was 2.0 ± 0.3 s⁻¹. In the series on CC(=O)NCCCNCCCCNCCCN, the Km turned out to be 30 ± 5 µM, the kcat came to 9.7 ± 0.2 s⁻¹ and the kcat/Km was 320000 ± 50000 M⁻¹ s⁻¹.
